{"source": "paper PMC4240730", "key": {"basigin (Homo sapiens)": {"biological_target": "basigin (Homo sapiens) (UniProt P35613)", "conditions": "cited from earlier work"}, "[1]": {"biological_target": "basigin (immunoglobulin domains 1 and 2 of the short isoform, residues 22-205) (UniProt P35613)", "assay": "AUC"}, "[2]": {"biological_target": "basigin (immunoglobulin domains 1 and 2 of the short isoform, residues 22-205) (UniProt P35613)", "assay": "SPR"}}}
{"substance": "PfRH5 (from UniProt Q8IFM5)", "values": [{"measurement": "Kd", "setting": "basigin (Homo sapiens)", "result": 1.1, "unit": "µM"}]}
{"substance": "PfRH5ΔN (residues K140-Q526) (from UniProt Q8IFM5 140-526) (domain or fragment)", "values": [{"measurement": "stoichiometry N", "setting": "[1]", "result": 1}]}
{"substance": "PfRH5ΔNL (from UniProt Q8IFM5 140-526) (domain or fragment)", "values": [{"measurement": "Kd", "setting": "[2]", "result": 1.3, "unit": "µM"}]}
